Results reported in patent US20210104294A1 (published 2021).
Values belong to the binder of their own block, whether it stands above or below them.

Key:
Assay in all cases: in vitro peptide-MHC affinity measurement
HLA-B*54:01 = HLA-B*54:01 (human, UniProt P01889 25-309)
HLA-A*29:02 = HLA-A*29:02 (human, UniProt P04439 25-308)
HLA-A*01:01 = biological target: T1, HLA-A*01:01 (human, UniProt P04439-2 25-302)
T1 chain: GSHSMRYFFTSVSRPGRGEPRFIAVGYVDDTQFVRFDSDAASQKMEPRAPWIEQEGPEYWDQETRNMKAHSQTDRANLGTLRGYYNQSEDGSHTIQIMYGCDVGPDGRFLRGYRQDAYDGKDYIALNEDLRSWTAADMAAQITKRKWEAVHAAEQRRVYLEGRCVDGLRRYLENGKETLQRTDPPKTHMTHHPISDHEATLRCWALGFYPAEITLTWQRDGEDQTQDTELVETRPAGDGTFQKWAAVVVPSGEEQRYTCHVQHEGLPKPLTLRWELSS

HLA-B*51:01 = HLA-B*51:01 (human)

Binder: HFLDRHLVF
IC50 (HLA-A*29:02): 1.6 nM

Binder: DTEFPNFKY
IC50 (HLA-A*01:01): 80.8 nM

Binder: DGLRDLPSI
IC50 (HLA-B*51:01): 12.6 nM

Binder: FYPELKLAY
IC50 (HLA-A*29:02): 0.2 nM

Binder: DGYVVKETI
IC50 (HLA-B*51:01): 13.4 nM

Binder: DGRLVINRV
IC50 (HLA-B*51:01): 13.5 nM

Binder: FLWPEAFLY
IC50 (HLA-A*01:01): 1.3 nM

Binder: DGLLRVLTV
IC50 (HLA-B*51:01): 0.2 nM

Binder: ALSDLALHF
IC50 (HLA-A*29:02): 6 nM

Binder: FPKETFEGP
IC50 (HLA-B*54:01): 16.4 nM

Binder: DAYPQRIKF
IC50 (HLA-B*51:01): 31 nM

Binder: DAPLNIRSI
IC50 (HLA-B*51:01): 6.5 nM

Binder: FVEILIPVA
IC50 (HLA-B*54:01): 12.2 nM

Binder: ATDGKVLLW
IC50 (HLA-A*01:01): 191 nM

Binder: GLDDKLLHY
IC50 (HLA-A*29:02): 21.3 nM

Binder: GLPDLVAKY
IC50 (HLA-A*29:02): 29.7 nM

More lines, now with the values ahead:

IC50 (HLA-B*54:01): 16.6 nM
Binder: SAPVNFISA

IC50 (HLA-A*29:02): 2.6 nM
Binder: YLPALKVEY

IC50 (HLA-B*54:01): 1.7 nM
Binder: YPVYQPVGP

IC50 (HLA-B*51:01): 84.8 nM
Binder: TPESKIRFV

IC50 (HLA-A*01:01): 11.1 nM
Binder: YVPEHWEYY

IC50 (HLA-A*01:01): 70.6 nM
Binder: KLDLLEQEY

IC50 (HLA-A*01:01): 78.9 nM
Binder: TTDGYLLRL

IC50 (HLA-B*51:01): 38 nM
Binder: IIYPTPKVV

IC50 (HLA-B*51:01): 56.3 nM
Binder: VPPLVPKVL

IC50 (HLA-B*51:01): 1790 nM
Binder: YIIEREPLI

IC50 (HLA-B*54:01): 6 nM
Binder: YGFVNYVTA

IC50 (HLA-A*29:02): 4.6 nM
Binder: LPLDIQIFY

IC50 (HLA-B*51:01): 144 nM
Binder: VALLVGEKV
